Data published in the supplement of paper PMC10567573.

B1: BTBD10 (parent)
chain: DRKLHSRPRKLYKHSSTSSRIAKG

Variants of: B1
Assay: protein stability index of a GFP-peptide fusion (GPS, HEK-293T) (PSI 1-6); higher = more stable
Settings: c terminus: a fixed tail appended
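Note: lentivirally expressed fusions sorted by FACS into six bins by GFP to DsRed ratio, PSI derived from sequencing read proportions per bin multiplied by bin number.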

Protein stability index, by site and new letter:
S19: H 3.5 | E 4.42 | T 4.4 | W 3.22 | Q 3.63 | D 3.93 | V 3.65 | I 3.7 | L 3.45 | M 3.07 | Y 2.62 | F 3.23 | N 3.58 | P 4.34 | G 3.57 | K 4.18 | R 4.53
I21: Q 3.36 | P 4.16 | Y 4.48 | W 3.33 | V 3.74 | L 3.96 | A 3.5 | M 3.77 | H 4.04 | F 3.65 | K 4.28 | S 4.59 | R 3.95 | N 4.03 | G 4.71 | D 4.6 | T 4.18 | E 4.33 | C 3.88
A22: H 3.58 | K 3.68 | T 3.55 | Y 3.7 | D 4.01 | N 3.34 | P 3.99 | C 3.11 | F 2.99 | Q 4.15 | S 4.15 | I 3.58 | L 3.03 | R 4.5 | E 3.67 | W 3.47 | G 3.91 | V 3.71 | M 3.44
R20: P 3.6 | V 3.96 | E 4.04 | I 3.66 | D 4.28 | H 4.24 | T 4.13 | Q 4.2 | C 3.39 | L 3.94 | W 2.97 | M 4.06 | A 3.9 | F 3.6 | Y 3.94 | S 3.85 | K 3.92 | G 3.62 | N 4.21
K23: L 3 | Y 2.98 | S 3.41 | H 3.41 | V 3.31 | C 3.17 | W 3.04 | A 3.72 | E 4.08 | M 2.89 | P 3.44 | F 3.56 | G 4.08 | R 3.27 | Q 4.1 | D 3.78 | N 4.61 | I 2.92 | T 3.58
G24: R 4 | W 2.65 | E 4.5 | I 3.21 | N 4.3 | F 3.19 | V 3.74 | D 3.65 | H 3.35 | S 3.65 | M 3.38 | A 3.61 | Y 3.33 | K 4.14 | P 4.05 | L 3.28 | C 3.3 | Q 3.92 | T 4
